This data set is described as follows: soluble on expression in E. coli; label from the status in PepcDB or PDB records.
In the case of “MSTGVKANDVKTKTKGADLVVDCLIKQGVTHVFGIPGAKIDSVFDVLQERGPELIVCRHEQNAAFMAAAIGRLTGKPGVCLVTSGPGTSNLATGLVTANAESDPVVALAGAVPRTDRLKRTHQSMDNAALFEPITKYSVEVEHPDNVPEALSNAFRSATSTNPGATLVSLPQDVMTAETTVESIGALSKPQLGIAPTHDITYVVEKIKAAKLPVILLGMRASTNEVTKAVRALIADTELPVVETYQAAGAISRELEDHFFGRVGLFRNQPGDILLEEADLVISIGYDPIEYDPKFWNKLGDRTIIHLDDHQADIDHDYQPERELIGDIALTVNSIAERLPKLVLSTKSEAVLERLRAKLSEQAEVPNRDSEGVTHPLQVIRTLRSLISDDTTVTCDIGSHSIWMARCFRSYEPRRLLFSNGMQTLGVALPWAIAATLVEPGKKVVSVSGDGGFLFSAMELETAVRLNSPIVHLVWRDGTYDMVAFQQMMKYGRTSATEFGDVDLVKYAESFGATGLRVNTPDELEGVLKSALAADGPVIIDIPIDYRDNIKLSEKLLPNQLN”, the “soluble on expression in E. coli” value was “not soluble”. For “MSTIAKDQTQINDKIRAKELRLIGQDGEQIGVKSKREALEMAERVDLDLVVVAPNAKPPVARIMDYGKFKFEQQKKEKEMKKKQKIINVKEIRLSPTIEEHDFQTKLKNGRKFLTKGDKCKVSIRFRGRAITHKEIGQRVLEKYADECKDIATVEQKPKMDGRQMFIMLAPTAEK”, the “soluble on expression in E. coli” value is given as “not soluble”.

Regarding “MSTKEIICTLKGQFFLSPREEKFLRLLEEMGIPEEDIQEGIRECLKSVSPKKRKNFPLFKCFSKILEVNKVRALERGKREHLDWKRVFERKVSVVKHLLDFNYTEPKTEEEAEKTLQEIERKIFKKLWENLDKERKREIYNKYKEVKEDEELFKELIKHELRKIFQIPVLSLYVD”, the “soluble on expression in E. coli” value was “not soluble”. In the case of “MSTKLTGYVWDGCAASGMKLSSVAIMARLADFSNDEGVCWPSIETIARQIGAGMSTVRTAIARLEAEGWLTRKARRQGNRNASNVYQLNVAKLQAAAFSQLSDSDPSKSDASKSDPSKFDASKSGKKAGFHPSESGGDPSVKSKHDPSDKKPSRPDSSQPDTQTAEQDFLTRHPDAVVFSPKKRQWGTQDDLTCAQWLWKKIIALYEQAAECDGEVVRPKEPNWTAWANEIRLMCVQDGRTHKQICEMYSRVSRDPFWCRNVLSPSKLREKWDELSLRLSPSVSTYTEKREDPYFKASYDNVDYSQIPAGFRG”, the “soluble on expression in E. coli” value is reported as “not soluble”. “MSTKMTPPVEKNEFIDVVFEDLTHDGAGVAKVKGYPIFVKNGLPGEEAQIKIIKVKKNFAFGRLMKLHTESPYRKDAECPVYNQCGGCQLQHLTYEGQLQAKEKQVRDVMQRIGGLADVPVHPVLGMKNPWVYRNKAQVPIGEREGGLVAGFYRQGTHDIINMESCLIQAEENDTLIQEVKRICEKHGITAYNEERNKGTLRHVMARYGQVTGEIMLVFITRTAELPNKKAIIEEIAAKFPEVKSIVQNVNTKRTNVIFGDKTTVLYGSEYIYDFIGDIKFAISARSFYQVNPEQTKVLYDKTLEYAKLNGNETVIDAYCGIGSISLFLAQKAKKVYGVEIVPEAIEDANRNAALNNMTNAEFGVGEAEVVIPKWYKEGVIADTMVVDPPRKGCDEALLNTIIDMKPNRVVYVSCNPATLARDLKVLEEGGYKTQEVQPVDMFPHTTHVECVAWLKLV”: the “soluble on expression in E. coli” value is recorded as “not soluble”. Regarding “MSTNPFAILRLPESALRKSINQMGLMEQFSLSVLSNKTKHAVTMLPEVKNDVSITMTSSLELLLSNHSQDVDFIFEMDSHYPNVEIRQRFDNARCRFTQLSIPGFTVKHWIEHIVDVFCKNQGVALIFESIMRERFYELYEIIKNIKIVHLEPFSSQIQDYQRLTLFPSLEWLTVIGVDEAPIGTPILIQNFEGFIIFPNIQWKIDDVLISNFSNLRMWHRTFSVQDLNLFMRQWIKGSMPRLEEFDVILSHSNQHKLVETDLFKSIKYTVKENENCKINVIKRRDGAKASVCFGGKSSYEFHFTVESEPD”, the “soluble on expression in E. coli” value was “not soluble”.

On to “MSTNPSQLVAADRIGFARLTKRAFDGENLYPLWQELMSKTDAGTATAGEQLDLALITQLFGHKQAGLSVQTETLKQQQLFRSPCASDNPRLRVLALAADIDMGGNTPIEFLLQDSGIELQTLYVIDGVPLPDPLPAHDVAIVIASDSDECMSALAAIEARVANWPAPLLNPPHLIRHLDRDKLYRLIGDIEGLEIPDTISVGRDTLVAAANGSATLPEVTGGVDFPIIVRPRGSHAGFGLARITDSVALLDYLRDRQESDYFIARYVDYASDDGQFRKYRVVVVDGKPYACHMAIANRWDIWYLNAGMAEDEVKRLEEAAFFHTFDFGFALRHKTALDGMIERIGLDYFTIDCAQTPRGDLLVFEIDNTAVVHDMDSPELYPYKPPQMHKIFDAFASMLERRVASRLTSVAAAALEHHHHHH”, for which the “soluble on expression in E. coli” value is on record as “soluble”. Take “MSTPVLELRGIVKTFGATRALDGASLRVAAGSVHGLVGENGAGKSTLIKVLAGIHRPDAGSLLLDGQPHGHFSPRQVERLGIGFIHQERLLPARFTVGEALFFGHERRFGPLLDRRSQQREAARLLDDYFGLRLPANALIGELSSAEQQMVQIVRALLIKPRVLVFDEPSVALVQREVERLLRIVQRLRDDGLAIVYISHYLQEIEALCDRVTVLRNGRDVAEVSPRNTSLEQITRLMVNREVGELYPKVAVPAGALLLDVRGLGRARAYQGIDLQVRRGEIVGLTGLVGSGAKELLRSLFGLAPPDSGEVRLDGQPLSLRSPREAVAQGVALMPEERRRQGVALDLSVQENTTLAALSRFVRLGLLSPARERHTTLELIERLRIKAHGAHAKVRQLSGGNQQKVALAKWFARCSSLYLLDEPSVGIDVGAKVEIYRLIGELVKEGAGVLILSSDLPELIGLCDRIHVMHRGAIAARFAAGEANSDRLLAVATGAQRAQNEERPFYAYAIAI”: the “soluble on expression in E. coli” value was “not soluble”.

On to “MSTSEMLELNRTIDRLRRAVGSLRSMYGDAASVRRLSNDLERLEIDARELDSSPPNVVHREPVERIKVSDTPYDASMWLGIDDEGLGGLHYERG”, for which the “soluble on expression in E. coli” value is reported as “not soluble”. Take “MSTSHDRAVLNQILNPLMPTSDSGIAEIHLESDSLEHPGYELSLQLEREGVALAEGVRLDEAIEKFTKALEVCPKNPSAYNNRAQAYRLQNKPEKALDDLNEALSLAGPKTKTACQAYVQRASIYRLRGDDDKARTDFASAAELGSSFAKMQLVALNPYAAMCNKMLAEVFEKAKTGED”: the “soluble on expression in E. coli” value was “soluble”. As to “MSTSQPREQFLLISALGPNPMELTTLLCRACVESRCAVVSSRLTRHGEFSALVLQISGSWDALARLEGSLPALTKRGDITLSMTRSNAHVTRAQALPYVAYVSAVYRPDILNELCQFFIDHNIELENLTCDTYQAPHTNTTMLNATITVTLPAGTQISWLRDQFLDFADALNLDALIEPWRPQHP”, the “soluble on expression in E. coli” value is listed as “not soluble”.

As for “MSTSTLQSEQSMEIITPPADIGTRTLVDKAAQFVSKKGLEFETKIIDSYPTDAKFNFLRSTADPCHTYYKHKLAEYSSQNQDGATDESDIKIFHAPPNVTTTAIVETTSCLVSQFGSEFEMMVKDSNTDDARFNFLKSSEDPYNVLYKQKLDEYSLDPRDAYYQHKLAESISKYHREATPKLVLPNLLQFRLVKEMTFEELDTVKVTAQFVAWYGDDFRGFLMERVMTEPQFEFMKATDYRFSFYNEFVVAYSQVLNPPKYLKDKLRGRAAYTVIGHLLITMSEEEIS”, the “soluble on expression in E. coli” value is “soluble”. Take “MSVAEFDADVIVDARDCIMGRVASQVAEQALDGETVAVVNAERAVITGREEQIVEKYEKRVDIGNDNGYFYPKRPDGIFKRTIRGMLPHKKQRGREAFESVRVYLGNPYDEDGEVLDGTSLDRLSNIKFVTLGEISETLGANKTW”: the “soluble on expression in E. coli” value is “soluble”.

For “MSVATATMPQQQNNFAQTLSQSSSTASAPAPTSAPVTTPAPGSRGAALFGGVFHRGFFSKPVERTEEENYRYLMALDR”, the “soluble on expression in E. coli” value is reported as “not soluble”.

For the origin of these results see the DeepSol protein solubility set.
